Test results: patent publication US20200347144A1 (SHANGHAI HYAMAB BIOTECH, published 2020)

Columns and labels:
[1] = target: T1, mouse 4-1BB protein (extracellular domain) (mouse, UniProt P20334 24-187); experiment: ELISA, coated mouse 4-1BB; Ab 10 ug/ml
T1 construct: extracellular domain; also called mouse 4-1BB-his; mouse 4-1BB-hFc protein
T1 sequence (looked up): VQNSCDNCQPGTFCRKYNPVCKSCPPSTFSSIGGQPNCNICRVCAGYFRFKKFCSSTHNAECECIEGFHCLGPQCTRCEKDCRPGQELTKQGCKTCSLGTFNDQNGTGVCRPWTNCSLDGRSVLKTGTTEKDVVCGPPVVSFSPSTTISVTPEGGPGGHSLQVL
Procedure: (§1) The purified immunogen A (4-1BB-hFc), monkey 4-1BB-his, and mouse 4-1BB-his obtained in Example 1 [for the preparation method, see step 1 of Example 1, preparation of immunogen A], of which the extracellular domain of monkey-derived 4-1BB protein (purchased from ACRO biosystems), the extracellular domain of mouse 4-1BB protein (purchased from sino biological) or other immune detection point proteins respectively were diluted with PBS to a final concentration of 1.0 μg/mL, then added with […] per well to 96-well ELISA plate. It was sealed with plastic film and incubated at 4° C. overnight. The next day, the plate was washed twice with the plate-washing solution [PBS containing 0.01% (v/v) Tween20] and blocking solution [PBS containing 0.01% (v/v) Tween 20 and 1% (v/v) BSA] was added and blocked at room temperature for 2 hours. The blocking solution was discarded and 100 μl of the purified 4-1BB antibody obtained in Example 2 was added per well. After incubated at 37° C. for 2 hours, the plate was washed 3 times with a plate-washing solution [PBS containing 0.01% (v/v) Tween20]. A secondary antibody (purchased from Sigma) labeled with HRP (horseradish peroxidase) was added, and after incubated at 37° C. for 2 hours, the plate was washed 3 times with a plate-washing solution [PBS containing 0.01% (v/v) Tween20]. 100 μl of TMB substrate was added per well. After incubated for 30 minutes at room temperature, 100 μl of stop buffer (1.0N HCl) was added per well. The A450 nm values were read using an ELISA plate reader (SpectraMax 384plus, Molecular Device).

[2] = target: T2, monkey 4-1BB on CHOK1 cells (monkey); experiment: FACS on CHOK1-c4-1BB cells, Alexa 488 secondary antibody, average fluorescence intensity
T2 construct: whole, on cells; also called CHOK1-c4-1BB
Description: The pIRES plasmid carrying the full-length gene of monkey-derived […] (the preparation method is the same as the preparation method of the pCpC vector carrying the human-derived IgG Fc fragment (hFc) in “Preparation of immunogen A” of the step (1) in Example 1, in which the database accession number of the amino acid sequence of the extracellular region of monkey 4-1BB protein (Phe19-Thr239) is G7PSE7) was transfected into CHOK1 cell line to obtain CHOK1 stable transfected cell line containing monkey 4-1BB (herein referred to as CHOK1-c4-1BB stable cell line). The CHOK1-h4-1BB stable cell line and the CHOK1-c4-1BB stable cell line were expanded and cultivated to 90% confluence in T-75 cell culture flasks. The medium was exhausted, and washed twice with HBSS buffer (Hanks Balanced Salt Solution, purchased from Invitrogen), and then the cells were treated and collected with enzyme-free cell dissociation solution (Versene solution, purchased from Life Technology). The cells were washed twice with HBSS buffer, and after cell counting, the cells were diluted with HBSS buffer to 2×10⁶ cells per ml, and 1% goat serum blocking solution was added, the percentage being the mass percentage. It was incubated on ice for 30 minutes, and then washed twice with HBSS buffer by centrifugation. The collected cells were suspended in FACS buffer (HBSS containing 1% BSA, the percentage was the mass percentage) to 2×10⁶ cells/mL, and 100 μl per well was added to a 96-well FACS reaction plate. The purified 4-1BB antibody test sample obtained in Example 2 was added, 100 microliters per well and incubated on ice for 2 hours. […] It was washed three times with FACS buffer by centrifugation, and 100 μl of fixative [4% (v/v) paraformaldehyde] per well was added to suspend cells, and washed twice with FACS buffer after 10 minutes by centrifugation. The cells were suspended with 100 microliters of FACS buffer, and the results were detected and analyzed with FACS (FACS Calibur, purchased from BD).

monkey 4-1BB-his protein [3] = target: T3, monkey 4-1BB-his protein (monkey); experiment: ELISA: monkey 4-1BB-his coated at 1.0 µg/mL, antibody titrated, HRP secondary antibody, OD450
T3 construct: extracellular domain; Bought protein; also called extracellular domain of monkey-derived 4-1BB protein
Procedure: as §1

monkey 4-1BB-his protein [4] = target: T3, monkey 4-1BB-his protein; experiment: ELISA, coated monkey 4-1BB-his; Ab 0.4 ug/ml
Procedure: as §1

[5] = target: T1, mouse 4-1BB protein (extracellular …); experiment: ELISA, coated mouse 4-1BB; Ab 2 ug/ml
Procedure: as §1

[6] = target: T1, mouse 4-1BB protein (extracellular …); experiment: ELISA, coated mouse 4-1BB; Ab 0.0006 ug/ml
Procedure: as §1

monkey 4-1BB-his protein [7] = target: T3, monkey 4-1BB-his protein; experiment: ELISA, coated monkey 4-1BB-his; Ab 0.0006 ug/ml
Procedure: as §1

[8] = target: T1, mouse 4-1BB protein (extracellular …); experiment: ELISA, coated mouse 4-1BB; Ab 0.0032 ug/ml
Procedure: as §1

[9] = target: T1, mouse 4-1BB protein (extracellular …); experiment: ELISA, coated mouse 4-1BB; Ab 0.4 ug/ml
Procedure: as §1

[10] = target: T1, mouse 4-1BB protein (extracellular …); experiment: ELISA, coated mouse 4-1BB; Ab 0.0001 ug/ml
Procedure: as §1

monkey 4-1BB-his protein [11] = target: T3, monkey 4-1BB-his protein; experiment: ELISA, coated monkey 4-1BB-his; Ab 10 ug/ml
Procedure: as §1

[12] = target: T1, mouse 4-1BB protein (extracellular …); experiment: ELISA: mouse 4-1BB protein coated at 1.0 µg/mL (target by Table 10; the legend paragraph 119 says monkey 4-1BB-hFc), antibody titrated, HRP secondary antibody, OD450
Procedure: as §1

monkey 4-1BB-his protein [13] = target: T3, monkey 4-1BB-his protein; experiment: ELISA, coated monkey 4-1BB-his; Ab 0.0032 ug/ml
Procedure: as §1

monkey 4-1BB-his protein [14] = target: T3, monkey 4-1BB-his protein; experiment: ELISA, coated monkey 4-1BB-his; Ab 0.08 ug/ml
Procedure: as §1

- OD450 nm [1]: 0.25 OD450 nm
- EC50 (read off the curve) [2]: ~0.1 µg/mL
- EC50 (read off the curve) (monkey 4-1BB-his protein [3]): ~0.05 µg/mL
- OD450 nm (monkey 4-1BB-his protein [4]): 2.14 OD450 nm
- OD450 nm [5]: 0.18 OD450 nm
- OD450 nm [6]: 0.05 OD450 nm
- OD450 nm (monkey 4-1BB-his protein [7]): 0.08 OD450 nm
- OD450 nm [8]: 0.05 OD450 nm
- OD450 nm [9]: 0.08 OD450 nm
- OD450 nm [10]: 0.05 OD450 nm
- OD450 nm (monkey 4-1BB-his protein [11]): 2.36 OD450 nm
- binding result [12]: no binding (tested: 10 µg/ml)
- OD450 nm (monkey 4-1BB-his protein [13]): 0.14 OD450 nm
- OD450 nm (monkey 4-1BB-his protein [14]): 1.58 OD450 nm
B1: 113F6C6 (antibody, V domains shown)
VH: QVQLVESGGGVVQPGRSLRLSCAASGLTFSSYGMHWVRQAPGKGLEWVAVIWYDGSNKYYADSVKGRFTISRDNSKNTLYLQMNSLRAEDTAVYYCAREEVLWFGELSYNYYYGMDVWGQGTTVTVSS
VL: DIQMTQSPSSLSASVGDRVTITCRASQGISNYLAWYQQKPGKVPKLLIYAASTLQSGVPSRFSGSGSGTDFTLTISSLQPEDVATYYCQKYNSVPLTFGGGTKVEIK
notes: also called 4-1BB fully human antibody 113F6C6; 113F6F6
